The nature of the data set: soluble on expression in E. coli; label from the status in PepcDB or PDB records.
Consider “MSENMVNLPDSLYEDYSKLKLTSPSNASSSSSAPPPRLSVVAHPTVEMIIQWVCDIHKPKSYMSDFALHNLAYHRNDFEFLPSLLWESKNTVYIMLQEVFEAYRHLAGHISLRLFPHPLNPLRVYNVFLLFQSMACHPDTSRQFLRAKMPNYFYPLMDTGLIDKSDECMRLAALGVIAHMLKASEDGAVNRYLMESGVVGFCVKPIEFGSTETKKVALYILDKIMSTDQGLYYCCVLADRFYVIDELLKKVLFYLSNMVRPPSSLFSLVTGCYVKLSQNSRARNGIRRYTPFLLFDGTFSRLYAEDPVAANNRIQLLQNLDN”, for which the “soluble on expression in E. coli” value is given as “soluble”. The entry for “MSENSNQFLDALKQMQGVEVGDIVDVEVLDVEDGQIDVGVENAGVEGVITRREYTSDRNADLRDLVKPGDKFKALVLRRAGGDKENGEFFFSVTRLKEREAFDKLQKDFEEGNAIEGTVTSSVRGGLLVDVGTRGFLPASLISNRYVSDLKPYIGKTMKLKITEIDPNKNRLILSHKDLVEEEREEAFDKVASQLVVGDVVEGKVSRLTNFGSFIDVGGVDGLVHISEISYKHVDKPSDVLKVGQDVKVKVIGIDNDRHRISLSIKQTEPSPFEQATADLNEGDIFEGEVKSLTNFGAFVEVADGIQGLVHVSEISNKHVDKPSDVLKVGQTVKVKVLNIDPNDRRISLSIKAADSNSSSSDNHNSRPRRSRNENTVNKKYMSDNDNGFALGDIIGDQLKDRKLEHHHHHH” is “soluble”; for “MSEPLLEVKNLKTYFPIKGGIFSRTVGHVKAVDGVSFTIKKGEVFGLVGESGSGKTTIGKTILRLVQKTEGEVKFKGHDVHSLSKEELRKHRPNMQLVFQDPFSSLNPRMRIGEALGEPMLAHGLATKENVREKVTEVLELCGLAPYHIDRYPHEFSGGQRQRIVIARAMVLNPEFIVADEPVAALDVSIQAQIINLFSELQEKKGLSYLFISHDLSVVEHLCTKIGIMYLGTIVETAPRDELFTNPLHPYTKALLSAVPIPDPTVKRERIILEGDIPSPANPPSGCCFHTRCPFATDICKQTGNSVMLVKSTLLLVIMYKREGLFQKLKESFFIY” it is “not soluble”.

Take “MSEQKTIRFIITRQDTADSTPYDEEFEIPYRPNLNVISALMEIRRNPVNVKGEKTTPVTWDMNCLEEVCGACSMVINGKPRQSCTALIDQLEQPIRLKPMKTFPVVRDLQVDRSRMFDSLKKVKAWIPIDGTYDLGPGPRMPEKRRQWAYELSKCMTCGVCLEACPNVNSKSKFMGPAPMSQVRLFNAHPTGAMNKSERLEALMDEGGLADCGNSQNCVQSCPKGIPLTTSIAALNRDTNLQAFRNFFGSDRV”: the “soluble on expression in E. coli” value is on record as “not soluble”.

As to “MSEQLNADRPKTRRKEPAGRGSASEQKILAAAKELFLADRYDGVNLERIAARAGVSRQTVYNRFGSKETVFREMVRHHWSAFAGPGRDIAECGPDASAEEVLRGFAQSLQRFATETDQIRFAQLVVTESARLPWIADEFYRLGKGPVVVTFADCLDSLVRRGLLRCPDTHLAARQFTGLVQEFLVWPRVMAFEEEVAGQAPPEVVIEEAVLTFLARYAPAADGPGQSV”, the “soluble on expression in E. coli” value is “not soluble”.

Turning to “MSEQQPNLRERRRSETRRLVQAHAVRLFTDHGYDAVTVADVAEAAGVSAMTVYRHFPTKEDLVLIDQPAQLIAEHVAASSAAQPLVRRVGSALIDAATNWTGGNGDEQAANERFLLDCLRLMVSTPALRARHLDSQYALQQAIVDALGDDATGPDAAFRAQAATSACIAAMHTALTRWVEDDGHTKLPDLIARALTASFGDDAVATRRKG”, the “soluble on expression in E. coli” value is “not soluble”. The entry for “MSEQVYSGVDQDEDGGLTPLGRIVIDAWVFGILPESEMCTGWSMSQMQNLYEEVYAAWGPYAHLPSRLPPELQQRHSFFYSQRITVAKNNGWDTDLSDES” is “not soluble”.

Consider “MSERPVHEYIKELSEALVQLSDKVLQNFNEALYAVTHKDVQSARKIRIVDDEIDQTEVKLEERCLAFLALQQPVARDLRTMVTIIKINDDLERIGDLAVHIIERMPALGHEVMERYQFEKMGNLSATMVRKAIEAFVTRDRLLADNVCAMDEDVDAMHRMIFKKVADAMKACNTDTEQLLAVLSVSRYIERMADHATRIAREVIYLVTGEIVRHSDDTFEKLIQSLKD”, for which the “soluble on expression in E. coli” value was “soluble”. The entry for “MSERQSKYFDYQGIVISSTGQDNQDSETDLVYLIQAHGKAAPKNIMYGVSKCAFVPTNLERNFDNIEEAKNLERRSKIPLKFGEVILWNESDCDHDKRIILHIKREKPIYEASSSRNGLILKVGGVIQPTSTTSFWTPLCTVTMPETEATRAEPDVWLYAWIRFETTMKSGLDPFNMTATFESFDSCDPSDQARVCEAPWNAGSPDSKFGVWRPDPKPADSDDEIDIEPREGWHLPEDKWAEVIKMQLGLYVGERLLICKELSQFDFIIPLQKPFSRGTDKTLIYPAVGEYFHFSAIWSMQHNGFLIYELQPVPLLRQHVTSVNGNLLTRVVPASIRGLFVDKEGTLGLIDDPHHLLSFFEFHPAGYEFLKAMAEVRAVRTSENKSVRYRIVRTSGMSIFENWLRDTQFVVGPVKGIRINEDTVICAKHPNVYFKIPNNLKEGIPIGGGVQFVGKRQAGVDSEIMITECSPCPAFTCKNYSVSGDTRLFQVYLKPNCDHEQLAESDSMGFVDFRELETPCRGKFLAWVRESITVNDCRRAATIMEVCSTAICPPLIAMSANSSRATSARTTPAGSSIGSRSSIQSRASAATSVSSNRFVGPSSRRTPSGTPQSSTSSRV” is “not soluble”; for “MSESSEWLIYRGAGEPHDGVDRLPDPPPWRDFTSRDAAGSGDGSEDRRLGAHRHLAELHRPGAEELEMINAALYLRRPLLVTGSPGAGKSTLAHSVAYELGLGNVLRWSIVSRSELQDGLYHYDAIARLQDVQIAAQADNGPGSGTPGAVDGIGGYIRLGPLGTALLPSDKPRVLLIDELDKSDIDLPNDLLNVLEEGEFAIPELERVADRLPDRTAEVLTADGVKVPVRDGRVRCRAFPFVVLTSNGERDFPAPLMRRCIHLELGRPDHNRLATFVRAHLGDEAARAGDDLVTRFLERSRSELLATDQLLNAIYLTDAAATPSRDRLADLLIQRLDRPRLEHHHHHH” it is “soluble”; for “MSEVNIVVNGREAGSKSKGCALCGATWGDYHADFLGEDLFFCCDICAAEFMNMMDEAFKHTARHNVDELHIDGNYQLGRNVLLKNGEDRLRFYVKFGPGAVIKEFKITD” it is “soluble”. “MSEWASEDINAPSLLTGNPALQPQTGGILNIPANHQRIFTLFFTCRSQTNGDVVDQYAVEDRQQRLESRLLALKPSAQRNKQMCGECLGGVILTALFDPRSQAM”: the “soluble on expression in E. coli” value is “not soluble”. Regarding “MSFAPMLLATINNSIGNKDKHVSLEYLIGLFMDKKTTNLSNTDKYIIGTIQTEALEQEIEWFSQDYHIPMENILHVLSINPYQ”, the “soluble on expression in E. coli” value was “not soluble”. With “MSFFEQYRTGNLVLPNALFFHFKDIFPSADDFLVWQFLYLQTTTQIGEVASSQIAQATGKTPTEVNKSITTLTEAGLLDFTTVKVNNEIKMVVDASPALAVLDKLVSSENSTTGPVAGQPTNTQLIKQLTDELEQALGILNPMVIEDLNKEIQEEHTDPELIREALKEAVFNRKTNWNYIKGVLRNWKLSGITTKIQVEERRLEHQGKKQHHQVSDEFKTGMDAARQLWGGQ”, the “soluble on expression in E. coli” value is given as “not soluble”. For the sequence “MSFGLVGTVNNNGWKSPFRHETKYRAGYDKFKYYKTHYRGAKKAGTNDDRWRWTAWFDLDFAHQKIVLIERGELHRQADLKKSDPATNETSKTVWGSIKEKLLQNVNNLHSEKGVFLWFRQSGFTTTRN”, the “soluble on expression in E. coli” value was “soluble”. In the case of “MSFKDLRSFIDHLEANGELKRISYPVDPHLEMTEIADRVLRAQGPALLFENPTNHSMPVLANLFGTPKRVAMALGKDDPLALREVGELLAFLKEPEPPRGFKDAISKIPMFKQALNMPPKTVRNPACQQVVKTGDDVDLTQLPIQHCWPGDVAPLVTWGLTITKGPRKSRQNLGIYRQQLLGKNKLIMRWLSHRGGALDFADFKEQFPGERYPVVVALGSDPVTILGAVTPVPDAMSEYAFAGLLRGERTEVCKALSCDLEVPASSEIILEGYIDPNEMAEEGPYGDHTGYYNETDKFPVFTVTHITHRKDPIYHSTYTGRPPDEPAMLGVALNEVFVPILRKQYPEIIDFYLPPEGCSYRMAVISIRKQYPGHAKRVMMGAWSFLRQFMYTKFIVVVDDDVNCRDWNDVIWAITTRMDPKRDTVMIDNTPIDYLDFASPVVGLGSKMGLDATNKWEGETNREWGTPIVMDPKVKQKIDSIWDELGIS” it was “soluble”; in that of “MSFSENRRIALVTLVVDNYDRAKAFYCDVLGFECLSDKPLDDGKRWVVVKPQGAEGGALLLAEADGEQQRLAIGNQTGGRVGFFLHTDDFARDYETMIARGVHFLEEPRHEVYGSVAVFADPYGNRWDLLQPRG”, “not soluble”. The entry for “MSFSQAVSGLNAAATNLDVIGNNIANSATYGFKSGTASFADMFAGSKVGLGVKVAGITQDFTDGTTTNTGRGLDVAISQNGFFRLVDSNGSVFYSRNGQFKLDENRNLVNMQGMQLTGYPATGTPPTIQQGANPAPITIPNTLMAAKSTTTASMQINLNSTDPVPSKTPFSVSDADSYNKKGTVTVYDSQGNAHDMNVYFVKTKDNEWAVYTHDSSDPAATAPTTASTTLKFNENGILESGGTVNITTGTINGATAATFSLSFLNSMQQNTGANNIVATNQNGYKPGDLVSYQINNDGTVVGNYSNEQEQVLGQIVLANFANNEGLASQGDNVWAATQASGVALLGTAGSGNFGKLTNGALEASNVDLSKELVNMIVAQRNYQSNAQTIKTQDQILNTLVNLR” is “not soluble”. The entry for “MSGFSVYVGNAPFQTTEDDLGNYFSQAGNVSNVRIVCDRETGRPRGFAFVEFTEEAAAQRAVDQFNGVDFNGRALRVNLAQNRNN” is “not soluble”; for “MSGGLLKALRSDSYVELSQYRDQHFRGDNEEQEKLLKKSCTLYVGNLSFYTTEEQIYELFSKSGDIKKIIMGLDKMKKTACGFCFVEYYSRADAENAMRYINGTRLDDRIIRTDWDAGFKEGRQYGRGRSGGQVRDEYRQDYDAGRGGYGKLAQNQ” it is “soluble”; for “MSGIITILGLGAGELDQLTMGVYRKIKEADHLFVRTKEHPVIEELEKEGVQYTSFDAVYEAHDTFEIVYETIANKLLEQAEGTEIIYAVPGHPLVAERTVQLLLEKGEVSNVEVRIEGGQSFLDPMFASLKIDPIEGFQLLDATSFERGQLELRQHLIFCQVYDAFVASDVKLTLMEMLPDDYEVYIVTAAGTSFEQVKKVPLYMLDHETELNNLTSVYMPPVQERASLYQQFDVLREIIAELRGPNGCPWDKKQTHQSLKKYLIEEAYEVLEAIDEEDDDHLVEELGDILLQVMLHAQIGEDEGWFSIDDIIRTLSEKMVRRHPHVFGNTDVNSADEVIANWEEIKKQEKGFVKESVLNGVPKSLPQLLRAYEIQKKAGKVGFDWVDVQPMIEKALEEWQEFQQEVTNMDEEKMLGEFGDLLFAFVNIARHYKIDPEEALRSTNEKFTGRFLYMEAKVAEMNKEMKDLSLEQLDVLWEEAKQTER” it is “not soluble”. As to “MSGQKCSAYTDTMGTCTICSIFAPHSQLFICRHEGCKYALKQSSSIMTPAMFYRKEKVICGKCAFVGPHKMHKDFVSKAQKLAFKIASQEIGVRLQMEFDVLSELHEDNPVDYAIILSGHEKLEKIDVIKYLSQSKTIVEWNLRQRQLNEAIQFIKFNRIEGYHRVKELANKMLDAFYDANATIERDSENGSPQSDDDHLSDVSHECQGSSRSSISSKKSSIHSTSTTGTVILNQNPDNALSCSEVSGGDELKNKSSTNEGYTESMTETVITISRRFEMCIRRESPEDAVSRIADYLDDRIESNDQKKAIAEYMERNYSIKWPRQFQ”, the “soluble on expression in E. coli” value is listed as “not soluble”. For the sequence “MSHHHHHHAGIFTFEEPVTHVSESIGIMEVKVLRTSGARGNVIVPYKTIEGTARGGGEDFEDTCGELEFQNDEIVKTISVKVIDDEEYEKNKTFFLEIGEPRLVEMSEKKGGFTITEEYDDKQPLTSKEEEERRIAEMGRPILGEHTKLEVIIEESYEFKSTVD”, the “soluble on expression in E. coli” value is listed as “soluble”.

(Values after the DeepSol protein solubility set.)
